Literature values in patent publication US20140303060A1, “PROCESS FOR DEGRADING A BIOFILM ON SURFACES OF OBJECTS” (Fraunhofer Gesellschaft Zur Foerderung der angwandten …, priority 2011, published 2014).

## lysostaphin: zinc-dependent enzyme that cleaves the pentaglycine cross bridges of the bacterial cell wall
  effect of repeated freezing and thawing on activity: reduction of activity
